Laboratory results reported in US20070185028A1, “Compositions and methods for treatment of protein misfolding and protein aggregation diseases” (priority 2004, published 2007).

How the values were obtained:
transthyretin (TTR) = molecular target: T1, transthyretin (TTR) (Homo sapiens, UniProt P02766); test: Transthyretin fibrillation ThT assay; type: biochemical; settings: 1:1 ratio
T1 construct: purchased Sigma-Aldrich
Description: The effect of the five αB crystallin peptides ST, DR, HG, LT, and ER on TTR fibrillation was measured using the ThT fluorescence assay (FIG. 26). The formation and inhibition of TTR fibrils was qualitatively verified by fluorescence and bright-field microscopy. The concentration of the peptides was varied relative to TTR to establish a concentration curve. In addition, the effect of a control neuropeptide (AT1) with no TTR fibril inhibition activity was measured and compared to the effect of the αB crystallin peptides on TTR fibril formation. The ThT fluorescence of 16 μM TTR alone incubated at 37° C. for 4 hrs, increased from ˜15,000 to ˜45,000 RFU. Addition of 3.2 μM αB crystallin peptides, ST, DR, LT, and HG decreased the ThT fluorescence of TTR by 15-70%. In contrast, 3.2 μM ER had no effect on TTR fibril formation. Increasing the concentration of the ER peptide to 16 μM decreased the ThT fluorescence of TTR by 60%. The negative control peptide AT1 had no effect on TTR fibrillation even at a concentration as high as 160 μM. All five αB crystallin peptides inhibited TTR fibrillation at sub-stoichometric and stoichometric concentrations (3.2 μM and 16 μM).
The Thioflavin T (ThT) fluorescence of TTR in the presence of varying concentrations of αB crystallin peptides and controls was measured. […] When the concentration of the peptides was increased to 16 μM (1:1::peptide:TTR), the αB crystallin peptides ST, DR, HG, LT and ER decreased the ThT fluorescence by 8-72%. When the concentration of the peptides was increased further to 80 μM ([…]), all of the five αB crystallin peptides ST, DR, HG, LT, and ER decreased the ThT fluorescence by 40-70%. […] The formation and inhibition of TTR fibrils was verified microscopically.
Transthyretin fibrillation ThT assays were performed as described previously. Hurshman et al., Biochemistry 43:7365-81, 2004; O'Nuallain and Wetzel, Proc Natl Acad Sci USA 99:1485-90, 2002. Peptides were dissolved to 2 mM in 0.25% DMSO and diluted accordingly, while TTR was dissolved in 200 mM KCl, 2 mM EDTA, 5 mM PBS, 200 mM sodium acetate, pH 4.4. For the 5::peptide:TTR assay, 10 μL of 160 μM peptide was mixed with 10 μL of 32 μM TTR, and 1 μL of 1 mM ThT. For the 1:1::peptide:TTR assay, 10 μL of 32 μM peptide was mixed with 10 μL of 32 μM TTR and 1 μL of 1 mM ThT. For the 1:5::peptide:TTR assay, 10 μL of 6.4 μM peptide was mixed with 10 μL of 32 μM TTR and 1 μL of 1 mM ThT. ThT fluorescence was measured using a Perkin Elmer Victor^3 V plate reader. Assays were performed in 384-well fluorescence plates in duplicates or triplicates. Samples were incubated at 37° C. ThT fluorescence was measured continuously for 150 minutes. The effect of the peptides and APS was calculated as percentage fibril formation relative to TTR alone (100%) at the end of 150 minutes.

beta amyloid = beta amyloid (Homo sapiens, UniProt P05067); test: αB crystallin protein pin array, binding of beta amyloid; settings: immobilized 8-mer peptide; absorption at 450 nm
Source text: αB Crystallin peptides that bind the target protein beta-amyloid were identified by screening an αB crystallin protein pin array, which provides a systematic method for evaluating interactions between peptides corresponding to residues 1-175 of human αB crystallin and selected target proteins in a parallel and simultaneous manner.
Peptides were synthesized on derivatized polyethylene pins arranged in a microtiter plate format. Each peptide was 8 amino acids in length and consecutive peptides were offset by 2 amino acids. All peptides were covalently bonded to the surface plastic pins. The first immobilized peptide was 1MDIAIHHP8 and the last peptide was 168PAVTAAPK175 for the human αB crystallin.
After synthesis, the pins were pre-coated at room temperature with 2% Bovine Serum Albumin (BSA), 0.1% Tween-20 and 0.1% Sodium azide in 10 mM phosphate buffered saline pH 7.2 (PBS) for 1 hr, and washed three times for 10 mins each with 10 mM PBS. To screen for binding to the peptides, fixed concentrations of the target protein beta amyloid was dissolved in 10 mM PBS, containing 0.05% Tween-20, added to each well and incubated for 1 hr at room temperature. The pin array was washed three times for 10 mins each with 10 mM PBS, containing 0.05% Tween-20. Monoclonal or polyclonal primary antibodies for the target protein beta amyloid was diluted into PBS buffer, added to each well and incubated for 1 hr at room temperature. Subsequently, the pin array was washed three times for 10 mins each with 10 mM PBS containing 0.05% Tween-20. Anti-rabbit horse-radish peroxidase conjugate secondary antibodies was diluted into PBS buffer, added to each well and incubated for 1 hr at room temperature. The pin array was washed three times for 10 mins each with 10 mM PBS containing 0.05% Tween-20. A chromogenic substrate of horse-radish peroxidase 3,3′,5,5′-Tetramethylbenzidine (TMB) (Pharmingen, San Diego, Calif.) which is colorless was added, and the reaction was carried out for 45 min.
The reaction was stopped by adding 6N sulfuric acid, which changes the color from blue to yellow. The absorption at 450 nm was measured by an ELISA reader (BioTek, Winooski, Vt.).
The pin array was regenerated by sonication in a water bath (VWR Aquasonic, West Chester, Pa.) with 100 mM PBS, containing 1% Sodium dodecyl sulfate (SDS) and 0.1% 2-Mercaptoethanol@60° C. for 10 mins. Next, the pin array was rinsed three times in deionized water, preheated to 60° C. for 30 secs each time, and shaken in water preheated at 60° C. for 30 min. The pin array was then washed with methanol at 60° C. for 15 secs and air-dried and stored @−20° C. for future use. Each target protein was assayed 2-5 times against the human αB crystallin protein pin array peptides to verify the reproducibility of the results. Peptides numbered 5, 7, 8, 9, 13, 19, 22, 23, 24, 27, 35, 38, 45, 51, 52, 56, 57, 61, 66, 71, 72, and 79 in Table 2 reproducibly tested positive in the protein pin assay.

human γD crystallin = molecular target: T2, human γD crystallin (Homo sapiens, UniProt P07320); test: αB crystallin protein pin array with γD crystallin; type: binding; settings: unheated γD crystallin; similar maxima pre-heated 45° C.
T2 construct: made in house
T2 sequence (P07320 1-174): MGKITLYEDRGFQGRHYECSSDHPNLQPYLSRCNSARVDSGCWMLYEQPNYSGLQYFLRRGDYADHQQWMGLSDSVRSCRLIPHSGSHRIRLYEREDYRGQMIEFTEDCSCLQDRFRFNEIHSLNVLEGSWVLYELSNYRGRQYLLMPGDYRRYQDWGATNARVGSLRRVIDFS
Source text: (§1) Synthesis of Pins, binding and detection of peptides binding to ligand proteins. The αB crystallin protein pin array was used to measure the interaction between peptides and chaperone target proteins including bovine βH crystallin, human γD crystallin, equine alcohol dehydrogenase (ADH) and porcine citrate synthase (CS) as described (FIG. 12). Ghosh and Clark, Protein Sci 14: 684-95, 2005.
(§2) Refer to the methods section for detailed protocols. The absorbance corresponding to the blue coloration in each well was measured at λ=450 nm and plotted against the amino acid sequence of the corresponding peptide in that well (FIGS. 13 and 14). Wells containing peptides that have strong interactions with target proteins are dark blue and wells containing peptides that have weak or no interaction with target proteins are light blue or clear.
(§3) The purity of the target proteins used in the pin array assays, bovine βH crystallin, human γD crystallin, equine alcohol dehydrogenase (ADH) and porcine citrate synthase (CS) were determined to be >90% by SDS-PAGE. In addition, primary antibodies for each target protein were specific to that target protein and consequently contaminating proteins that may bind to the peptides will not be detected. Eighty-four sequential and overlapping peptide fragments corresponding to residues 1-175 of human αB crystallin were synthesized employing a simultaneous peptide synthesis strategy developed by Geysen, called Multipin Peptide Synthesis (Mimotopes, San Diego, Calif.). Geysen, Southeast Asian J Trop Med Public Health 21: 523-33, 1990; Chin et al., J Org Chem 62: 538-539, 1997. Peptides were immobilized on derivatized polyethylene pins arranged in a microtiter ELISA plate format. Each peptide was eight amino acids in length and consecutive peptides were offset by two amino acids. All peptides were bound covalently to the surface of the plastic pins. The first peptide was 1MDIAIHHP8 and the last peptide was 168PAVTAAPK175 for human αB crystallin.
(§4) Ghosh and Clark, Protein Sci 14: 684-95, 2005. […] The intensity of the blue color in the wells was measured at 450 nm using an ELISA plate-reader (BioTek, Winooski, Vt.). The intensity of the blue color (plotted on the X-axis) was a measure of the interaction between αB crystallin peptides (plotted on the Y-axis) and target proteins. To measure the effect of temperature on the interactions between interactive peptides and the target proteins, the target proteins were heated in a water-bath at 45° C. for fifteen minutes prior to use. Pin arrays are unable to differentiate between monomers, dimers or oligomers of target proteins that exist in solution. Instead, pin arrays are very sensitive detectors of interactions between individual peptides and the entire population (monomers, dimers or oligomers) of specific target proteins that may exist in solution under specific conditions. Each target protein was assayed two to five times. A single pin array was used for all experiments and no change in interactions was observed after more than thirty repetitions. The last three peptides of the protein pin array, 163REEKPAVT170, 165EKPAVTAA172, 167PAVTAAPK174, correspond to the epitope (163REEKPAVTAAPKK175) recognized by the primary antibody for human αB crystallin. A positive reaction is observed for these three peptides in the absence of human αB crystallin as the ligand due to direct binding of the anti-human αB crystallin antibody to these three peptides. The loss of efficiency for the pin array was measured using this assay. The loss of efficiency for the pin array was determined to be <5% by after more than 30 assays.
When βH crystallin was replaced with γD crystallin, a native protein constituent of lens cytoplasm from the same gene family as the β crystallins, as the ligand in the pin array, twelve interactive sequences were identified (FIG. 14: striped bars). […]

[1] = molecular target: T3, equine alcohol dehydrogenase (ADH) (Equus caballus, UniProt P00327); test: αB crystallin protein pin array with alcohol dehydrogenase; type: binding; settings: ADH as ligand in the pin array
T3 construct: purchased Sigma-Aldrich, MO 05646
T3 sequence (P00327 whole entry): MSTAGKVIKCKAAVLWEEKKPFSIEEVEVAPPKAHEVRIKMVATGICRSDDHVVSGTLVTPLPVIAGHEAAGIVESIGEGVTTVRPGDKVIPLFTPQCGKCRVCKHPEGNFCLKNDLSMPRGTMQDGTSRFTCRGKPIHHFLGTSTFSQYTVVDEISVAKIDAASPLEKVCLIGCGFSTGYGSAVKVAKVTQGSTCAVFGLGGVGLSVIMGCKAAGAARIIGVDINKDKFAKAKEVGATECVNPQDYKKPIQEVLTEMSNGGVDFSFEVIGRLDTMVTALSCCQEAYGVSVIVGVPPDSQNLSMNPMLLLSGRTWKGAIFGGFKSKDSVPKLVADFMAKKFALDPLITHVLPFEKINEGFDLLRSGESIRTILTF
Source text: as §1, §2, §3, §4
The pattern of absorbance at k=450 nm when αB crystallin peptides were assayed with unheated and pre-heated ADH was similar to the absorbance pattern obtained with unheated and pre-heated βH/γD crystallin (FIG. 17). […]

[2] = molecular target: T4, porcine citrate synthase (CS) (Sus scrofa, UniProt P00889); test: αB crystallin protein pin array with citrate synthase; type: binding; settings: CS as target protein in the pin array
T4 construct: purchased Roche Diagnostics, IN 103 381
T4 sequence (P00889 28-464): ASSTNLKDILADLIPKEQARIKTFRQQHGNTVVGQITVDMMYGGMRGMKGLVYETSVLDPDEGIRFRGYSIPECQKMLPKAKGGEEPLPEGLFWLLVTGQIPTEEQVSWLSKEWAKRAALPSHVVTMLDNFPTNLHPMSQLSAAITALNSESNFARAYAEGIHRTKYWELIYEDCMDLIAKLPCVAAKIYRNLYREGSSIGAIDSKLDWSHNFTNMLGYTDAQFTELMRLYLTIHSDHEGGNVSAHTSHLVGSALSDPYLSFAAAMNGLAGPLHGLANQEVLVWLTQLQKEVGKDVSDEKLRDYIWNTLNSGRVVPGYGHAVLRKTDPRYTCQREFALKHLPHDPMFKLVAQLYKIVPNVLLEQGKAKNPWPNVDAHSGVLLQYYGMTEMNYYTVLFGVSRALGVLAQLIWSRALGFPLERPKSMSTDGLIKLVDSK
Source text: as §1, §2, §3, §4
The pattern of absorbance at λ=450 nm when αB crystallin peptides were assayed with unheated and pre-heated CS was similar to the absorbance pattern obtained with unheated and pre-heated βH/γD crystallin and ADH (FIG. 18). […]

[3] = as provided by manufacturer (Mimotopes); cited from earlier work

## HEER
Transthyretin (TTR)
  inhibition of TTR fibrils, HG derived peptides: ~100%

## SLSPFYLR [Peptide 22]
Beta amyloid
  binding of beta amyloid in the protein pin assay: positive
Human γD crystallin
  absorbance at 450 nm, interaction with γD crystallin: maximum absorbances
[1]
  absorbance at 450 nm, interaction with ADH: Maximum absorbances
[2]
  absorbance at 450 nm, interaction with CS: absorbance maxima
[3]
  Hydrophobicity: 0.72
